In this assay the target is T1, FtsW-FtsI complex, His-tagged (E. coli strain K12, UniProt P0ABG4 1-414; P0AD68 1-577).
T1 construct: FtsW, transglycosylase, E. coli strain K12 (ATCC10798D-5), amplified from the genome with primers W-F and W-R; also called FtsWI; His-tagged FtsWI; source: E. coli C43, co-expressed from pETduet-FtsWI, purified (Ni-NTA, Superdex-200) in DDM
T1 sequence (looked up) 1: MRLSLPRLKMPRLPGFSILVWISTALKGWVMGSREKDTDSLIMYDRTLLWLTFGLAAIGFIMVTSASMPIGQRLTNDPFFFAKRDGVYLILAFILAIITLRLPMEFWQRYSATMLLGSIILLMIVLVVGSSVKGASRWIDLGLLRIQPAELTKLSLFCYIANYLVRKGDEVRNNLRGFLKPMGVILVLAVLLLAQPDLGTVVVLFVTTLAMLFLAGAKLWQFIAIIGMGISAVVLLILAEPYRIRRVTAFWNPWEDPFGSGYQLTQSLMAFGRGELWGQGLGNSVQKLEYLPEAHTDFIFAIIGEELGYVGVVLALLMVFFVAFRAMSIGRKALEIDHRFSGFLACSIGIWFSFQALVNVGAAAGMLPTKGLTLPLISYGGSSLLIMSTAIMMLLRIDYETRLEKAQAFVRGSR
T1 sequence (looked up) 2: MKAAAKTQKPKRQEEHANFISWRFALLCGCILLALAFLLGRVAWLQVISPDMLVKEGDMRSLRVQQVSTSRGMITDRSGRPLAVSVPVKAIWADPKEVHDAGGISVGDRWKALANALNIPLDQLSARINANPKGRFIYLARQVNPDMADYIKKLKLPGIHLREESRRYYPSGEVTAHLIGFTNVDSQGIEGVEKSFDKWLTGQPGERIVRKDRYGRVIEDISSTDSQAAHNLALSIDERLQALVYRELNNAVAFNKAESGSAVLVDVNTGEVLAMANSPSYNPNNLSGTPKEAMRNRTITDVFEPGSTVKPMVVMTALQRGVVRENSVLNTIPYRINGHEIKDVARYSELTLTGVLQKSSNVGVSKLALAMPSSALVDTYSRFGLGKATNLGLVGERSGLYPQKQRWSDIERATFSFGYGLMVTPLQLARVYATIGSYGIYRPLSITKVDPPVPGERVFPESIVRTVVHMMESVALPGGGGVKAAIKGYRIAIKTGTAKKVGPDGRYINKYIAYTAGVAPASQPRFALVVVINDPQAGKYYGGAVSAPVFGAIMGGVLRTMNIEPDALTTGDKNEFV
Kind of assay: BLI; His-tagged protein loaded at 50 μg/ml on HIS1K (Anti-Penta-HIS) biosensors; analyte in threefold dilutions 0.016-4 µM; 200 mM NaCl, 20 mM HEPES pH7.5, 0.1% DDM; 240 sec association and dissociation; Octet HTX. The note with it: both partners purified. A general note: In BLI a coated tip is dipped into the sample, and binding shifts an interference pattern.

B1: PBP1b (aa58-804) (enzyme, E. coli strain K12, UniProt P02919 58-804, looked up)
chain: KPRGKRGWLWLLLKLAIVFAVLIAIYGVYLDQKIRSRIDGKVWQLPAAVYGRMVNLEPDMTISKNEMVKLLEATQYRQVSKMTRPGEFTVQANSIEMIRRPFDFPDSKEGQVRARLTFDGDHLATIVNMENNRQFGFFRLDPRLITMISSPNGEQRLFVPRSGFPDLLVDTLLATEDRHFYEHDGISLYSIGRAVLANLTAGRTVQGASTLTQQLVKNLFLSSERSYWRKANEAYMALIMDARYSKDRILELYMNEVYLGQSGDNEIRGFPLASLYYFGRPVEELSLDQQALLVGMVKGASIYNPWRNPKLALERRNLVLRLLQQQQIIDQELYDMLSARPLGVQPRGGVISPQPAFMQLVRQELQAKLGDKVKDLSGVKIFTTFDSVAQDAAEKAAVEGIPALKKQRKLSDLETAIVVVDRFSGEVRAMVGGSEPQFAGYNRAMQARRSIGSLAKPATYLTALSQPKIYRLNTWIADAPIALRQPNGQVWSPQNDDRRYSESGRVMLVDALTRSMNVPTVNLGMALGLPAVTETWIKLGVPKDQLHPVPAMLLGALNLTPIEVAQAFQTIASGGNRAPLSALRSVIAEDGKVLYQSFPQAERAVPAQAAYLTLWTMQQVVQRGTGRQLGAKYPNLHLAGKTGTTNNNVDTWFAGIDGSTVTITWVGRDNNQPTKLYGASGAMSIYQRYLANQTPTPLNLVPPEDIADMGVDYDGNFVCSGGMRILPVWTSDPQSLCQQSEMQQQPS
notes: PBP1b, bi-functional peptidoglycan synthase, E. coli strain K12 (ATCC10798D-5), residues 58-804; Analyte in BLI; source: E. coli C43, from pET15b-PBP1b, purified (Ni-NTA, Superdex-200) in DDM
B1: the binding result is reported as “binds”.

(Values after paper PMC10076392, “Structure of the heterotrimeric membrane protein complex FtsB-FtsL-FtsQ of the bacterial divisome” (Nature Communications, 2023).)
